# Measurements: publication PMC7026264, “Crystal structures of N-terminal WRKY transcription factors and DNA complexes”
# Key:
# AtWRKY1-N [1] = molecular target: T1, AtWRKY1-N (Arabidopsis, UniProt Q9SI37 108-169); test: ITC; ITC: 25 mM HEPES pH 7.0, 100 mM NaCl, 20 C, 0.25 mM protein into 0.026 mM DNA; EMSA: 25 mM HEPES pH 7.0, 100 mM NaCl, 5% glycerol, 6 pmol DNA in 6 ul, 4 C 20 min; conditions: protein: recombinant; tags: C-terminal His; blunt
# AtWRKY33-N = AtWRKY33-N (Arabidopsis, UniProt Q8S8P5 185-242); test: crystal structure; 3.0 A; zinc finger; ITC: 25 mM HEPES pH 7.0, 100 mM NaCl, 20 C, 0.25 mM protein into 0.026 mM DNA; EMSA: 25 mM HEPES pH 7.0, 100 mM NaCl, 5% glycerol, 6 pmol DNA in 6 ul, 4 C 20 min; conditions: protein: recombinant; tags: C-terminal His; 5' overhang 1 nt at each end
# Sequence of AtWRKY33-N (Q8S8P5 185-242): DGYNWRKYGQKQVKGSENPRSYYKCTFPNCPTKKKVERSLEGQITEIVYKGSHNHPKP
# AtWRKY1-N [2] = molecular target: T1, AtWRKY1-N; test: as above; conditions: protein: recombinant; tags: C-terminal His; 5' overhang 1 nt at each end
# AtWRKY2-N = AtWRKY2-N (Arabidopsis, UniProt Q9FG77 270-332); test: crystal structure; 2.4 A; zinc finger; ITC: 25 mM HEPES pH 7.0, 100 mM NaCl, 20 C, 0.25 mM protein into 0.026 mM DNA; EMSA: 25 mM HEPES pH 7.0, 100 mM NaCl, 5% glycerol, 6 pmol DNA in 6 ul, 4 C 20 min; conditions: protein: recombinant; tags: C-terminal His; 5' overhang 1 nt at each end
# Sequence of AtWRKY2-N (Q9FG77 270-332): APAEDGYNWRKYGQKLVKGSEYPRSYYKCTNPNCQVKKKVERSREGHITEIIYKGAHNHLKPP
# AtWRKY1-N [3] = molecular target: T1, AtWRKY1-N; test: ITC; ITC: 25 mM HEPES pH 7.0, 100 mM NaCl, 20 C, 0.25 mM protein into 0.026 mM DNA; EMSA: 25 mM HEPES pH 7.0, 100 mM NaCl, 5% glycerol, 6 pmol DNA in 6 ul, 4 C 20 min; conditions: protein: recombinant; tags: C-terminal His; blunt; remark: listed apart in the source
# AtWRKY1 101-339 = AtWRKY1 101-339 (Arabidopsis, UniProt Q9SI37-2 101-339); test: ITC; N=0.5, two DNA per protein; 0.11 mM protein into 0.026 mM DNA; ITC: 25 mM HEPES pH 7.0, 100 mM NaCl, 20 C, 0.25 mM protein into 0.026 mM DNA; EMSA: 25 mM HEPES pH 7.0, 100 mM NaCl, 5% glycerol, 6 pmol DNA in 6 ul, 4 C 20 min; conditions: protein: recombinant; tags: C-terminal His; blunt
# Sequence of AtWRKY1 101-339 (Q9SI37 other isoform, or with tags, fused parts or gaps): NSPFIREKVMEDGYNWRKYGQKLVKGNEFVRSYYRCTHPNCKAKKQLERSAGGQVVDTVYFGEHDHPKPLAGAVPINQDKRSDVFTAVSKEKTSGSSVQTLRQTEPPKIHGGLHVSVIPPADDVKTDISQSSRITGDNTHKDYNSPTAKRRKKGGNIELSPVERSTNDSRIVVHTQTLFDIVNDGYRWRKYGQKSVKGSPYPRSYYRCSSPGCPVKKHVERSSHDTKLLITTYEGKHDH
# AtWRKY1-C = AtWRKY1-C (Arabidopsis, UniProt Q9SI37 301-366); test: ITC; ITC: 25 mM HEPES pH 7.0, 100 mM NaCl, 20 C, 0.25 mM protein into 0.026 mM DNA; EMSA: 25 mM HEPES pH 7.0, 100 mM NaCl, 5% glycerol, 6 pmol DNA in 6 ul, 4 C 20 min; conditions: protein: recombinant; tags: C-terminal His; blunt
# Sequence of AtWRKY1-C (Q9SI37 301-366): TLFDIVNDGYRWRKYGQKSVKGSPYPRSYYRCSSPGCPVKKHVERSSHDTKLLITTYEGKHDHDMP
# AtWRKY1-N R135A = AtWRKY1-N R135A (Arabidopsis, UniProt Q9SI37 108-169, R135A); test: EMSA; ITC: 25 mM HEPES pH 7.0, 100 mM NaCl, 20 C, 0.25 mM protein into 0.026 mM DNA; EMSA: 25 mM HEPES pH 7.0, 100 mM NaCl, 5% glycerol, 6 pmol DNA in 6 ul, 4 C 20 min; conditions: protein: recombinant; tags: C-terminal His; label: 5' Cy3 on strand 1; blunt
# Sequence of AtWRKY1-N R135A (Q9SI37 108-169 R135A): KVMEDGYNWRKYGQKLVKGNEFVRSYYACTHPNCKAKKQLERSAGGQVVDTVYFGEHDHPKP
# AtWRKY1-N K118A = AtWRKY1-N K118A (Arabidopsis, UniProt Q9SI37 108-169, K118A); test: as above; conditions: protein: recombinant; tags: C-terminal His; label: 5' Cy3 on strand 1; blunt
# Sequence of AtWRKY1-N K118A (Q9SI37 108-169 K118A): as the sequence (Q9SI37 108-169 R135A) above, with K11A, A28R counted along it
# AtWRKY1-N K144A = AtWRKY1-N K144A (Arabidopsis, UniProt Q9SI37 108-169, K144A); test: as above; conditions: protein: recombinant; tags: C-terminal His; label: 5' Cy3 on strand 1; blunt
# Sequence of AtWRKY1-N K144A (Q9SI37 108-169 K144A): as the sequence (Q9SI37 108-169 R135A) above, with A28R, K37A counted along it
# AtWRKY1-N Q121A = AtWRKY1-N Q121A (Arabidopsis, UniProt Q9SI37 108-169, Q121A); test: as above; conditions: protein: recombinant; tags: C-terminal His; label: 5' Cy3 on strand 1; blunt
# Sequence of AtWRKY1-N Q121A (Q9SI37 108-169 Q121A): as the sequence (Q9SI37 108-169 R135A) above, with Q14A, A28R counted along it
# AtWRKY1-N K122A = AtWRKY1-N K122A (Arabidopsis, UniProt Q9SI37 108-169, K122A); test: as above; conditions: protein: recombinant; tags: C-terminal His; label: 5' Cy3 on strand 1; blunt
# Sequence of AtWRKY1-N K122A (Q9SI37 108-169 K122A): as the sequence (Q9SI37 108-169 R135A) above, with K15A, A28R counted along it
# AtWRKY1-N R117A = AtWRKY1-N R117A (Arabidopsis, UniProt Q9SI37 108-169, R117A); test: as above; conditions: protein: recombinant; tags: C-terminal His; label: 5' Cy3 on strand 1; blunt
# Sequence of AtWRKY1-N R117A (Q9SI37 108-169 R117A): as the sequence (Q9SI37 108-169 R135A) above, with R10A, A28R counted along it
# AtWRKY1-N Y119A = AtWRKY1-N Y119A (Arabidopsis, UniProt Q9SI37 108-169, Y119A); test: as above; conditions: protein: recombinant; tags: C-terminal His; label: 5' Cy3 on strand 1; blunt
# Sequence of AtWRKY1-N Y119A (Q9SI37 108-169 Y119A): as the sequence (Q9SI37 108-169 R135A) above, with Y12A, A28R counted along it
# AtWRKY1-N Y133A = AtWRKY1-N Y133A (Arabidopsis, UniProt Q9SI37 108-169, Y133A); test: as above; conditions: protein: recombinant; tags: C-terminal His; label: 5' Cy3 on strand 1; blunt
# Sequence of AtWRKY1-N Y133A (Q9SI37 108-169 Y133A): as the sequence (Q9SI37 108-169 R135A) above, with Y26A, A28R counted along it
# AtWRKY1-N [4] = molecular target: T1, AtWRKY1-N; test: ITC; ITC: 25 mM HEPES pH 7.0, 100 mM NaCl, 20 C, 0.25 mM protein into 0.026 mM DNA; EMSA: 25 mM HEPES pH 7.0, 100 mM NaCl, 5% glycerol, 6 pmol DNA in 6 ul, 4 C 20 min; conditions: protein: recombinant; tags: C-terminal His; blunt; remark: listed apart in the source
# T1 sequence (Q9SI37 108-169): as the sequence (Q9SI37 108-169 R135A) above, with A28R counted along it
binder,measurement,setting,value
G7'C9' to A7'A9' (dsDNA) DNA 1: CGCCTTTTATCAGCGC DNA 2: GCGCTGATAAAAGGCG,Kd,AtWRKY1-N [1],7600 nM
W-box DNA for crystallization (15 bp) (dsDNA) DNA 1: AGCCTTTGACCAGCG DNA 2: TCGCTGGTCAAAGGC,binding result,AtWRKY33-N,binds
same,binding result,AtWRKY1-N [2],binds
same,binding result,AtWRKY2-N,binds
T8' to A8' (dsDNA) DNA 1: CGCCTTTGTCCAGCGC DNA 2: GCGCTGGACAAAGGCG,binding signal,AtWRKY1-N [3],12 fold decrease in affinity vs W-box
W-box DNA for ITC (dsDNA) DNA 1: CGCCTTTGACCAGCGC DNA 2: GCGCTGGTCAAAGGCG,Kd,AtWRKY1 101-339,500 nM
same,Kd,AtWRKY1-C,1300 nM
same,Kd,AtWRKY1-N [1],~100 nM
T6T7 to C6G7 (dsDNA) DNA 1: CGCCTCGGACCAGCGC DNA 2: GCGCTGGTCCGAGGCG,binding signal,AtWRKY1-N [3],4.5 fold decrease in affinity vs W-box
W-box DNA for EMSA (dsDNA) DNA 1: CGCCTTTGACCAGCGC DNA 2: GCGCTGGTCAAAGGCG,binding result,AtWRKY1-N R135A,no binding
same,binding result,AtWRKY1-N K118A,binds
same,binding result,AtWRKY1-N K144A,no binding
same,binding result,AtWRKY1-N Q121A,no binding
same,binding result,AtWRKY1-N K122A,no binding
same,binding result,AtWRKY1-N R117A,binds
same,binding result,AtWRKY1-N Y119A,binds
same,binding result,AtWRKY1-N Y133A,no binding
G6' to T6' (dsDNA) DNA 1: GCGCTTGTCAAAGGCG DNA 2: CGCCTTTGACAAGCGC,binding signal,AtWRKY1-N [4],2.5 fold decrease in affinity vs W-box
